Reference: paper doi:10.1101/2025.06.14.659664 (bioRxiv, 2025)

Molecular target: UbcH8 (UniProt O14933 1-153)
Assay: NMR titration

Chain of UbcH8 (O14933 whole entry): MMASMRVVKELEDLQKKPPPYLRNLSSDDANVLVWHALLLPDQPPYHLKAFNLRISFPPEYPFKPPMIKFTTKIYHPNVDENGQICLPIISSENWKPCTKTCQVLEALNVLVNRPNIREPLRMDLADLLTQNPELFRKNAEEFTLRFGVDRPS

Row | binding result | Binder
1 | binds | GBI-Uba7-UFD fusion protein (human Uba7 ubiquitin-fold domain, residues 903-1011), wild type (domain or fragment, UniProt P41226 903-1011, looked up) IQTFHHLKWTSWDRLKVPAGQPERTLESLLAHLQEQHGLRVRILLHGSALLYAAGWSPEKQAQHLPLRVTELVQQLTGQAPAPGQRVLVLELSCEGDDEDTAFPPLHYE
2 | binds | GBI-Uba7-UFD A1004C mutant (domain or fragment, human, UniProt P41226 903-1011, looked up) IQTFHHLKWTSWDRLKVPAGQPERTLESLLAHLQEQHGLRVRILLHGSALLYAAGWSPEKQAQHLPLRVTELVQQLTGQAPAPGQRVLVLELSCEGDDEDTCFPPLHYE
